Legend:
Assay in all cases: SPR; biotinylated p62 constructs or His-MBP immobilised on streptavidin sensor chips (520-700 RU); VHHp62 injected in serial dilution; 50 mM Tris, 150 mM NaCl, 1 mM TCEP, 0.05% Tween-20, pH 7.4, 25 °C; kinetic 1:1 model
Settings in all cases: both partners purified
p62(387-446)-Avi = molecular target: T1, p62(387-446)-Avi (Homo sapiens, UniProt Q13501, biotinylated)
T1 construct: p62 (SQSTM1), human, UBA domain, printed as residues 387-446; SPR construct; also called p62UBA; p62 ubiquitin associated domain; source: E. coli BL21 (DE3), purified (IMAC, 3C cleavage, SEC); not shown: His-MBP, N-terminal, cleaved; Avi, C-terminal, kept

His-MBP-avi = molecular target: T2, His-MBP-avi (Escherichia coli K12 (assumed), UniProt P0AEX9 = MBP, biotinylated)
T2 construct: Control surface protein in SPR; also called His-MBP tag; not shown: His, N-terminal, kept; Avi, C-terminal, kept

His-MBP-p62(85-440)-Avi = molecular target: T3, His-MBP-p62(85-440)-Avi (Homo sapiens, UniProt Q13501, biotinylated)
T3 construct: also called immunogen; p62 lacking essential parts of the PB1 domain; source: recombinant; not shown: His, N-terminal, kept; MBP, N-terminal, kept; Avi, C-terminal, kept

p62(122-181)-Avi = molecular target: T4, p62(122-181)-Avi (Homo sapiens, UniProt Q13501, biotinylated)
T4 construct: p62 (SQSTM1), human, ZZ domain, residues 122-181; also called p62ZZ; p62 ZZ domain; source: E. coli BL21 (DE3), purified (IMAC, 3C cleavage, SEC); not shown: His-MBP, N-terminal, cleaved; Avi, C-terminal, kept

B1: VHHp62-His (6C10) (VHH)
VHH: EVQLVESGGGLVQPGGSLRLSCVASGFTFSNYWMYWVRQAPGKGLEWVSTINTGSGAAYYTSSVKGRFTISRDNAKNTLYLQMNSLKSEDTAVYYCATDLRGAQRGQGTQVTVSS
notes: anti-p62 VHH from immunised llamas, phage display clone 6C10; the AlphaFold2 model of VHHp62 had 121 residues; also called VHH 6C10; p62 single-domain antibody; source: Pichia pastoris (Komagataella phaffii), secreted, purified (IMAC, desalting); not shown: His, C-terminal, kept
p62(387-446)-Avi
  Kd: 36 nM
His-MBP-avi
  binding result: no binding
His-MBP-p62(85-440)-Avi
  Kd: 11 nM
p62(122-181)-Avi
  binding result: no binding
